For one test, the system named is heptanedioyl-ACP. Description: Cell lysate in vitro thioesterase screen (DTNB, absorbance at 410 nm) on heptanedioyl-ACP. In kind it is biochemical. Particulars: 0.33 mM acyl-ACP substrate, 30° C., 30 min.
For test [1], the system named is heptanedioyl-ACP methyl ester. Description: Cell lysate in vitro thioesterase screen (DTNB, absorbance at 410 nm) on heptanedioyl-ACP methyl ester. In kind it is biochemical. Particulars: 0.33 mM acyl-ACP substrate, 30° C., 30 min.
Test [2] in a line: In vivo carboxylate reductase screening, substrate consumption by LC-MS, monomethyl heptanedioate. In kind it is cell-based, Escherichia coli. Particulars: 541 enzymes screened in vivo. As for the experimental part: To screen carboxylate reductases in vivo, […] T7- pUC expression vectors was co-transformed into T7 Express lysY/Iq with the phosphopantetheinyl transferase sfp from Bacillus subtilis on a T7-pCDF expression vector. Biological duplicates of the resulting strains were incubated in 0.5 mL of terrific broth containing either 1 g/L heptanedioate or 1 g/L monomethyl heptanedioate and supplemented with 0.4 mM IPTG in 96-well deep well plates. The plates were incubated for 30 h at 30° C. in a shaking incubator. The cells were then pelleted, and culture supernatants from the same strains in media containing either heptanedioate or monomethyl heptanedioate were combined. The combined supernatants were analyzed by LC-MS to determine the concentration of heptanedioate and monomethyl heptanedioate. Carboxylate reductase activity on heptanedioate or monomethyl heptanedioate was reflected by consumption of the respective substrate in the medium.

Experimental findings from patent publication US10801046B2, “Methods and materials for biosynthesizing multifunctional, multivariate molecules via carbon chain modification” (INVISTA NORTH AMERICA S.A.R.L., priority 2016, dated 2020) are described below.

B1: SEQ ID NO: 185: Granulicatella elegans ATCC 700633 thioesterase (protein)
chain: MTVDVICQIERTILPYECDWKENLLLSQALGMMMLASRKQQQQLQNPNLIYEKGYTWIVIQHEIEIQRMPKVDEEVIIETQAISYNKFFTYREYRILSKEREELFKCITTFAMLDMKARKIVSIDEEVVLEYPLSIGKEMRKATRIPKKDFSDATTGEYKIRINDIDANLHVNNARYFDFAFSELGMEFIEDHQLKQVVIKYEKEVLPESTISCSTLWEENTLESQERRQTYHLISQDGNRCANIQMKWEEIV
modifications: Granulicatella elegans ATCC 700633
notes: Granulicatella elegans ATCC 700633 thioesterase
In the case of B1, the “activity toward heptanedioyl-ACP (hydrolysis)” value in the test with heptanedioyl-ACP is listed as “notable for their activity toward heptanedioyl-ACP”.

B2: SEQ ID NO: 183: Clostridium sp. CAG: 798 thioesterase (protein)
chain: MAIIENKYHIGIKYVDKDRLLSLRGIILLFEDIACRHSDMVGYGINDVTKTHFSWVLLNWKIKVLSRINYGSIVTVKTWSRETSKLYTYRDFEIYDENNNLICIASSKWVLLSTETGHIIHITEEIKNAYLAENKTVFNESDLHKIVEPDNAEKTFSFTVRRRDIDINNHMNNLYYLDYALEALPEEVYSKFFNNVEIMYKYSAKLGETINCFYKEEEDGYYVMMKSATDNILHALVKLY
modifications: Clostridium sp. CAG:798
notes: Clostridium sp; CAG: 798 thioesterase
B2: the “activity toward heptanedioyl-ACP (hydrolysis)” value with heptanedioyl-ACP is listed as “notable for their activity toward heptanedioyl-ACP”.

B3: SEQ ID NO: 95: Aerococcus viridans ATCC 11563 thioesterase (protein)
chain: MINIRHYQGGKRMGLLYQESVKVRHYHCNALGEMTLPAILDIMLIASNNQEATIPEAKEGFRQEGWAWIITQNQIDINRLPRYDEDIIAETEATTYNKFFSKRHYALKTRDGLVLAQAETTFALIDLNQRSIVRIPEIVAEWYQVEKEERPSRRKRLNKEIAVESKLDRFEVKFLDIDLNNHVNNTIYLRWITNSLGMEWFEKYTPTSFTVAYEKEMYLHQEGAVHSDISTVSEDLKSGDTFNSQHVIDSEDKAHCLTEITWQVK
modifications: Aerococcus viridans ATCC 11563 = CCUG 4311
notes: Aerococcus viridans ATCC 11563 thioesterase
For the molecule B3, the “activity toward heptanedioyl-ACP (hydrolysis)” value with heptanedioyl-ACP is recorded as “notable for their activity toward heptanedioyl-ACP”.

B4: SEQ ID NO: 88: Clostridium sulfidigenes thioesterase (protein)
chain: MELNYKEQFTIKFHEGDFMGNVKLFTIMDYVQQVSEGHSQILGVDFQSMMNKGLFWVVSRVEITMERYPKVGEDITVETCLGGREKVFMKRRFKIKDKDGQVIGRVLIYYLIVDIETRLPQKPSMCPVDININVGDVIDNKLNKIKMPGEAIETVNRKLYYNDIDINNHVNNAKYISFIEDFFSLDWHRVKKISYMQLNFIKEIKFDDSLIMNKFIEDKESNSFCINGISEISEQEFFQCRLKF
modifications: Clostridium sulfidigenes
notes: Clostridium sulfidigenes thioesterase
Take B4: the “activity toward heptanedioyl-ACP (hydrolysis)” value in the test with heptanedioyl-ACP was “notable for their activity toward heptanedioyl-ACP”. The “activity toward heptanedioyl-ACP methyl ester (hydrolysis)” value in test [1] is “notable for their activity toward heptanedioyl-ACP methyl ester”.

B5: SEQ ID NO: 215: Schizopora paradoxa carboxylate reductase (protein, listed as Schizopora paradoxa)
chain: MASTLLQDVSPAPPLMISPLEIPLPEPVDFSKQAVEVPGTRRPGQTGHYQNAVWGFKAFPEEGPVYTLPDVFELGLSLEKNGQTSNKPFLGHRPVISAEPLKFASDYVWSTYAEADERRQNVGSALEKYFRDGTLGGGEYQTVGIWSQNRAEWQIVELACHAYGKVSVSLYDTLGKDSVEYIIEHAHLTVIFVTSQHIPLLLAMASKVPMLKLIVSVDELSSEAKRIMGIWSRTANVQVMELSELEQFGKANRLNMARPIGKSLATICYTSGTTSGPKGVLLTHSNLVSSVKSNLRASHFGEKGGIMMSYLPLAHIYERITELCTMALGGQIGFFTGDPLRLLEDASILKPNFFPSVPRVLNRVYQSAMLAGQTPGLKGYLFRTAMDAKLKKLHETGDNTHMLWDRLVFRKIQALLGGNVELVSCGSAPISVDVMDFLKIAFSCDVIEGYGMTENCGTCTRCWPNDPSSSGTVGAPQPCNEIKLVDVPSMNYTSNDKPNPRGEVCLRGNNCFSTYYKDEKNTRETVDEEGWLHTGDVGEIDSAGRLKIIDRIKNIMKLAQGEYVALEKIENVYGLHPLVAQLYVHGESLQDHLVGVIVPDPTQFAILCNSIRGTKIGANDSAELATAARDPAVAQAVLREITHEAKKAALKGFEMIKKIHLTTVPFSTENGLLTPTFKVRRKDCSIYFKEELAALYAQPTSMLK
With B5, the monomethyl heptanedioate activity result in test [2] was “most monomethyl heptanedioate activity”.

B6: SEQ ID NO: 182: Firmicutes bacterium CAG:449 thioesterase (protein)
chain: MNYYQKELVLQEKDFINDELSPYSILNYFQDIAGIHADKIGLSHEELIKNDLVWVVLRNKYEIIKMPSINQKVILKTWPHQKGKIDFDREYAIYDENNNLLIKGLSKWILMNYKTRRISMFNNIKYSFECLEETNFENKFNKIEDFDINNFSFIETTTSENDLDINGHVNNASYARIVLNNIDFDITINHFEINYIKEIKANQKLKIYYLKKDNTYYIKAFNNEEVIFVLIVY
modifications: Firmicutes bacterium CAG:449
notes: Firmicutes bacterium CAG:449 thioesterase
Take B6: the “activity toward heptanedioyl-ACP (hydrolysis)” value with heptanedioyl-ACP was “notable for their activity toward heptanedioyl-ACP”.

B7: SEQ ID NO: 184: [Clostridium] ultunense Esp thioesterase (protein)
chain: MKATPLYIKDYKVEINHVDFKGDLKLSSLFTYCQDIAGLHAENLGMGREVLYTQHRVIWVLVRVRVDIIKYPKWKDILTLETWPQEPSRMGFDRDFLIKDKKGNILAKAVSTWVVIDVESRKLVRTKSVYTGYPLVVEKRAIDCKLGNLKSSGELETAYERTVRYSDIDVNEHLNNAKYLDFIMDSFSFEEHRRFNVKSVEISYSNEALLGETIKIYEDRSRIDSNIIYMEGIREGKDLVFKSQIEIEEK
modifications: Clostridium ultunense Esp
notes: [Clostridium] ultunense Esp thioesterase
In the case of B7, the “activity toward heptanedioyl-ACP (hydrolysis)” value in the test on heptanedioyl-ACP is given as “notable for their activity toward heptanedioyl-ACP”.

B8: SEQ ID NO: 187: Eggerthella sp. CAG:1427 thioesterase (protein)
chain: MTIGYEQTYQLRTGDFDRYAHLLPSSILDVFQDVAGVNAEQVPGMTWKELTDAGLFWVVTRIKYEVIETPHLHEQVIARTWPLAPTRLGFQREYTMRKLDGTPLVKCSSDWILMDYKTRSFASARDFYNGPQDFSEEKVFEKKLRKIKTFEPEDTGETFQVHFVDIDINGHVNNSKYPNFVMNSLDLGEDETIKTFQIDYRHELRAGSTVRIHSKRDGNVITSMGISTEGDTAGECMFATQIELA
modifications: Eggerthella sp. CAG:1427
notes: Eggerthella sp; CAG:1427 thioesterase
With B8, the “activity toward heptanedioyl-ACP (hydrolysis)” value in the test on heptanedioyl-ACP was “notable for their activity toward heptanedioyl-ACP”.

B9: SEQ ID NO: 91: Cryptobacterium curtum thioesterase (protein)
chain: MTISASLFLEKDYRLRTGDFDRYRRLHPTAVLDLFQDIGGLQAEMMGIGYDAMAAQDVFWAVVRTAYQVEHTPAEHEVVKVSTWPHSPSRYSFQRDYALRSTDGSLLVRGTSEWVLMDMNTRSLTSVLDYYHGSLDFIDERMFAKKLRKIRDFTEEGSGLSITPRYSDVDQNGHVNNARYASFVLDALDPSAAGSIASFQIDFRHEVIEGTPLVVFTQVEGKDIQAKGLDSNGEIKFACKITAQA
modifications: Cryptobacterium curtum (strain ATCC 700683 / DSM 15641 / 12-3)
notes: Cryptobacterium curtum thioesterase
B9: the “activity toward heptanedioyl-ACP (hydrolysis)” value in the test on heptanedioyl-ACP is on record as “notable for their activity toward heptanedioyl-ACP”. In test [1], the “activity toward heptanedioyl-ACP methyl ester (hydrolysis)” value is recorded as “notable for their activity toward heptanedioyl-ACP methyl ester”.
